Assay results taken from the supplement of paper PMC5998384.

Key:
HeLa Kyoto [1] = assay: melting temperature (median over replicates), in situ; higher = more thermally stable
HeLa Kyoto [2] = assay: solubility in G1/S (NP-40 vs SDS abundance) (log2 ratio); higher = more soluble; conditions: cell cycle stage: G1/S
HeLa Kyoto [3] = assay: solubility change mitosis vs G1/S (difference of NP-40 vs SDS log2 ratios) (log2 ratio difference); higher = more soluble in mitosis
HeLa Kyoto [4] = assay: thermal stability score vs G1/S (z-score of summed log2 fold changes over temperatures); higher = more thermally stable than in G1/S
[5] = cell cycle stage: early G1 (4.5 h after nocodazole release)
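For melting temperature (median over replicates), in situ in this document: HeLa Kyoto cells synchronized by double thymidine or nocodazole block, proteins quantified by TMT10plex mass spectrometry, three independent biological replicates.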
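For solubility change mitosis vs G1/S (difference of NP-40 vs SDS log2 ratios) in this document: synchronized HeLa Kyoto cells (double thymidine block for G1/S, nocodazole release for mitosis), protein amounts in NP-40 versus SDS lysates quantified by mass spectrometry, three biological replicates.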
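For solubility in G1/S (NP-40 vs SDS abundance) in this document: HeLa Kyoto cells arrested at G1/S by double thymidine block, proteins quantified by TMT10plex mass spectrometry in mild NP-40 versus SDS extracts, three biological replicates.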
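For thermal stability score vs G1/S (z-score of summed log2 fold changes over temperatures) in this document: synchronized HeLa Kyoto cells, proteins quantified by TMT10plex mass spectrometry, three biological replicates, mitosis taken 0.5 h after nocodazole release, G1/S directly after double thymidine block.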

Sequence | melting temperature (HeLa Kyoto [1]; cell cycle stage: G1/S) | melting temperature (HeLa Kyoto [1]; cell cycle stage: mitosis) | solubility in G1/S (log2) (HeLa Kyoto [2]) | solubility change mitosis (log2) (HeLa Kyoto [3]) | thermal stability score (HeLa Kyoto [4]; [5]) | thermal stability score (HeLa Kyoto [4]; cell cycle stage: mitosis)
MKEEVKGIPVRVALRCRPLVPKEISEGCQMCLSFVPGEPQVVVGTDKSFTYDFVFDPSTEQEEVFNTAVAPLIKGVFKGYNATVLAYGQTGSGKTYSMGGAYTAEQENEPTVGVIPRVIQLLFKEIDKKSDFEFTLKVSYLEIYNEEILDLLCPSREKAQINIREDPKEGIKIVGLTEKTVLVALDTVSCLEQGNNSRTVASTAMNSQSSRSHAIFTISLEQRKKSDKNSSFRSKLHLVDLAGSERQKKTKAEGDRLKEGININRGLLCLGNVISALGDDKKGGFVPYRDSKLTRLLQDSLGGNSHTLMIACVSPADSNLEETLNTLRYADRARKIKNKPIVNIDPQTAELNHLKQQVQQLQVLLLQAHGGTLPGSITVEPSENLQSLMEKNQSLVEENEKLSRGLSEAAGQTAQMLERIILTEQANEKMNAKLEELRQHAACKLDLQKLVETLEDQELKENVEIICNLQQLITQLSDETVACMAAAIDTAVEQEAQVETSPETSRSSDAFTTQHALRQAQMSKELVELNKALALKEALARKMTQNDSQLQPIQYQYQDNIKELELEVINLQKEKEELVLELQTAKKDANQAKLSERRRKRLQELEGQIADLKKKLNEQSKLLKLKESTERTVSKLNQEIRMMKNQRVQLMRQMKEDAEKFRQWKQKKDKEVIQLKERDRKRQYELLKLERNFQKQSNVLRRKTEEAAAANKRLKDALQKQREVADKRKETQSRGMEGTAARVKNWLGNEIEVMVSTEEAKRHLNDLLEDRKILAQDVAQLKEKKESGENPPPKLRRRTFSLTEVRGQVSESEDSITKQIESLETEMEFRSAQIADLQQKLLDAESEDRPKQRWENIATILEAKCALKYLIGELVSSKIQVSKLESSLKQSKTSCADMQKMLFEERNHFAEIETELQAELVRMEQQHQEKVLYLLSQLQQSQMAEKQLEESVSEKEQQLLSTLKCQDEELEKMREVCEQNQQLLRENEIIKQKLTLLQVASRQKHLPKDTLLSPDSSFEYVPPKPKPSRVKEKFLEQSMDIEDLKYCSEHSVNEHEDGDGDDDEGDDEEWKPTKLVKVSRKNIQGCSCKGWCGNKQCGCRKQKSDCGVDCCCDPTKCRNRQQGKDSLGTVERTQDSEGSFKLEDPTEVTPGLSFFNPVCATPNSKILKEMCDVEQVLSKKTPPAPSPFDLPELKHVATEYQENKAPGKKKKRALASNTSFFSGCSPIEEEAH [KIF4A] | 45.7 °C | 48.8 °C | 0.00342 | 0.00592 | 4.91 | 8.64
MKENKENSSPSVTSANLDHTKPCWYWDKKDLAHTPSQLEGLDPATEARYRREGARFIFDVGTRLGLHYDTLATGIIYFHRFYMFHSFKQFPRYVTGACCLFLAGKVEETPKKCKDIIKTARSLLNDVQFGQFGDDPKEEVMVLERILLQTIKFDLQVEHPYQFLLKYAKQLKGDKNKIQKLVQMAWTFVNDSLCTTLSLQWEPEIIAVAVMYLAGRLCKFEIQEWTSKPMYRRWWEQFVQDVPVDVLEDICHQILDLYSQGKQQMPHHTPHQLQQPPSLQPTPQVPQVQQSQPSQSSEPSQPQQKDPQQPAQQQQPAQQPKKPSPQPSSPRQVKRAVVVSPKEENKAAEPPPPKIPKIETTHPPLPPAHPPPDRKPPLAAALGEAEPPGPVDATDLPKVQIPPPAHPAPVHQPPPLPHRPPPPPPSSYMTGMSTTSSYMSGEGYQSLQSMMKTEGPSYGALPPAYGPPAHLPYHPHVYPPNPPPPPVPPPPASFPPPAIPPPTPGYPPPPPTYNPNFPPPPPRLPPTHAVPPHPPPGLGLPPASYPPPAVPPGGQPPVPPPIPPPGMPPVGGLGRAAWMR [CCNK] | 52.9 °C | 52 °C | -0.035 | 0.0659 | 0.297 | 1.83
MKGMSHEPKSPSLGMLSTATRTTATVNPLTPSPLNGALVPSGSPATSSALSAQAAPSSSFAAALRKLAKQAEEPRGSSLSSESSPVSSPATNHSSPASTPKRVPMGPIIVPPGGHSVPSTPPVVTIAPTKTVNGVWRSESRQDAGSRSSSGGRERLIVEPPLPQEKAGGPAIPSHLLSTPYPFGLSPSSVVQDSRFPPLNLQRPVHHVVPPSTVTEDYLRSFRPYHTTDDLRMSSLPPLGLDPATAAAYYHPSYLAPHPFPHPAFRMDDSYCLSALRSPFYPIPTPGSLPPLHPSAMHLHLSGVRYPPELSHSSLAALHSERMSGLSAERLQMDEELRREREREREREREREADREREKEREREREKEREQEKEREREKERERELERQREQRAREKELLAAKALEPSFLPVAELHGLRGHATEERGKPSEQLTPTRAEKLKDAGLQAPKPVQHPLHPVPTPHHTVPSLISNHGIFSLPSSSAATALLIQRTNEEEKWLARQRRLRQEKEDRQSQVSEFRQQVLEQHLDMGRPPVPAEAEHRPESTTRPGPNRHEPGGRDPPQHFGGPPPLISPKPQLHAAPTALWNPVSLMDNTLETRRAESHSLHSHPAAFEPSRQAAVPLVKVERVFCPEKAEEGPRKREPAPLDKYQPPPPPPREGGSLEHQPFLPGPGPFLAELEKSTQTILGQQRASLPQAATFGELSGPLKPGSPYRPPVPRAPDPAYIYDEFLQQRRRLVSKLDLEERRRREAQEKGYYYDLDDSYDESDEEEVRAHLRCVAEQPPLKLDTSSEKLEFLQLFGLTTQQQKEELVAQKRRKRRRMLRERSPSPPTIQSKRQTPSPRLALSTRYSPDEMNNSPNFEEKKKFLTIFNLTHISAEKRKDKERLVEMLRAMKQKALSAAVADSLTNSPRDSPAVSLSEPATQQASLDVEKPVGVAASLSDIPKAAEPGKLEQVRPQELSRVQELAPASGEKARLSEAPGGKKSLSMLHYIRGAAPKDIPVPLSHSTNGKSKPWEPFVAEEFAHQFHESVLQSTQKALQKHKGSVAVLSAEQNHKVDTSVHYNIPELQSSSRAPPPQHNGQQEPPTARKGPPTQELDRDSEEEEEEDDEDGEDEEEVPKRKWQGIEAVFEAYQEHIEEQNLERQVLQTQCRRLEARHYSLSLTAEQLSHSVAELRSQKQKMVSERERLQAELDHLRKCLALPAMHWPRGYLKGYPR [GSE1] | 50.8 °C | 49.9 °C | 0.0704 | 0.0661 | -0.121 | 0.454
MKIFCSRANPTTGSVEWLEEDEHYDYHQEIARSSYADMLHDKDRNVKYYQGIRAAVSRVKDRGQKALVLDIGTGTGLLSMMAVTAGADFCYAIEVFKPMADAAVKIVEKNGFSDKIKVINKHSTEVTVGPEGDMPCRANILVTELFDTELIGEGALPSYEHAHRHLVEENCEAVPHRATVYAQLVESGRMWSWNKLFPIHVQTSLGEQVIVPPVDVESCPGAPSVCDIQLNQVSPADFTVLSDVLPMFSIDFSKQVSSSAACHSRRFEPLTSGRAQVVLSWWDIEMDPEGKIKCTMAPFWAHSDPEEMQWRDHWMQCVYFLPQEEPVVQGSALYLVAHHDDYCVWYSLQRTSPEKNERVRQMRPVCDCQAHLLWNRPRFGEINDQDRTDRYVQALRTVLKPDSVCLCVSDGSLLSVLAHHLGVEQVFTVESSAASHKLLRKIFKANHLEDKINIIEKRPELLTNEDLQGRKVSLLLGEPFFTTSLLPWHNLYFWYVRTAVDQHLGPGAMVMPQAASLHAVVVEFRDLWRIRSPCGDCEGFDVHIMDDMIKRALDFRESREAEPHPLWEYPCRSLSEPWQILTFDFQQPVPLQPLCAEGTVELRRPGQSHAAVLWMEYHLTPECTLSTGLLEPADPEGGCCWNPHCKQAVYFFSPAPDPRALLGGPRTVSYAVEFHPDTGDIIMEFRHADTPD [PRMT7] | 49.5 °C | 51 °C | -0.014 | -0.0142 | 0.131 | 1.01
MKKDVRILLVGEPRVGKTSLIMSLVSEEFPEEVPPRAEEITIPADVTPERVPTHIVDYSEAEQSDEQLHQEISQANVICIVYAVNNKHSIDKVTSRWIPLINERTDKDSRLPLILVGNKSDLVEYSSMETILPIMNQYTEIETCVECSAKNLKNISELFYYAQKAVLHPTGPLYCPEEKEMKPACIKALTRIFKISDQDNDGTLNDAELNFFQRICFNTPLAPQALEDVKNVVRKHISDGVADSGLTLKGFLFLHTLFIQRGRHETTWTVLRRFGYDDDLDLTPEYLFPLLKIPPDCTTELNHHAYLFLQSTFDKHDLDRDCALSPDELKDLFKVFPYIPWGPDVNNTVCTNERGWITYQGFLSQWTLTTYLDVQRCLEYLGYLGYSILTEQESQASAVTVTRDKKIDLQKKQTQRNVFRCNVIGVKNCGKSGVLQALLGRNLMRQKKIREDHKSYYAINTVYVYGQEKYLLLHDISESEFLTEAEIICDVVCLVYDVSNPKSFEYCARIFKQHFMDSRIPCLIVAAKSDLHEVKQEYSISPTDFCRKHKMPPPQAFTCNTADAPSKDIFVKLTTMAMYPHVTQADLKSSTFWLRASFGATVFAVLGFAMYKALLKQR [RHOT1] | 52.8 °C | 52.5 °C | -0.379 | -0.0628 | -0.722 | -1.26
MKKFFQEFKADIKFKSAGPGQKLKESVGEKAHKEKPNQPAPRPPRQGPTNEAQMAAAAALARLEQKQSRAWGPTSQDTIRNQVRKELQAEATVSGSPEAPGTNVVSEPREEGSAHLAVPGVYFTCPLTGATLRKDQRDACIKEAILLHFSTDPVAASIMKIYTFNKDQDRVKLGVDTIAKYLDNIHLHPEEEKYRKIKLQNKVFQERINCLEGTHEFFEAIGFQKVLLPAQDQEDPEEFYVLSETTLAQPQSLERHKEQLLAAEPVRAKLDRQRRVFQPSPLASQFELPGDFFNLTAEEIKREQRLRSEAVERLSVLRTKAMREKEEQRGLRKYNYTLLRVRLPDGCLLQGTFYARERLGAVYGFVREALQSDWLPFELLASGGQKLSEDENLALNECGLVPSALLTFSWDMAVLEDIKAAGAEPDSILKPELLSAIEKLL [UBXN6] | – | 47.8 °C | 0.337 | -0.0563 | 0.361 | 0.361
MKKFSRMPKSEGGSGGGAAGGGAGGAGAGAGCGSGGSSVGVRVFAVGRHQVTLEESLAEGGFSTVFLVRTHGGIRCALKRMYVNNMPDLNVCKREITIMKELSGHKNIVGYLDCAVNSISDNVWEVLILMEYCRAGQVVNQMNKKLQTGFTEPEVLQIFCDTCEAVARLHQCKTPIIHRDLKVENILLNDGGNYVLCDFGSATNKFLNPQKDGVNVVEEEIKKYTTLSYRAPEMINLYGGKPITTKADIWALGCLLYKLCFFTLPFGESQVAICDGNFTIPDNSRYSRNIHCLIRFMLEPDPEHRPDIFQVSYFAFKFAKKDCPVSNINNSSIPSALPEPMTASEAAARKSQIKARITDTIGPTETSIAPRQRPKANSATTATPSVLTIQSSATPVKVLAPGEFGNHRPKGALRPGNGPEILLGQGPPQQPPQQHRVLQQLQQGDWRLQQLHLQHRHPHQQQQQQQQQQQQQQQQQQQQQQQQQQQHHHHHHHHLLQDAYMQQYQHATQQQQMLQQQFLMHSVYQPQPSASQYPTMMPQYQQAFFQQQMLAQHQPSQQQASPEYLTSPQEFSPALVSYTSSLPAQVGTIMDSSYSANRSVADKEAIANFTNQKNISNPPDMSGWNPFGEDNFSKLTEEELLDREFDLLRSNRLEERASSDKNVDSLSAPHNHPPEDPFGSVPFISHSGSPEKKAEHSSINQENGTANPIKNGKTSPASKDQRTGKKTSVQGQVQKGNDESESDFESDPPSPKSSEEEEQDDEEVLQGEQGDFNDDDTEPENLGHRPLLMDSEDEEEEEKHSSDSDYEQAKAKYSDMSSVYRDRSGSGPTQDLNTILLTSAQLSSDVAVETPKQEFDVFGAVPFFAVRAQQPQQEKNEKNLPQHRFPAAGLEQEEFDVFTKAPFSKKVNVQECHAVGPEAHTIPGYPKSVDVFGSTPFQPFLTSTSKSESNEDLFGLVPFDEITGSQQQKVKQRSLQKLSSRQRRTKQDMSKSNGKRHHGTPTSTKKTLKPTYRTPERARRHKKVGRRDSQSSNEFLTISDSKENISVALTDGKDRGNVLQPEESLLDPFGAKPFHSPDLSWHPPHQGLSDIRADHNTVLPGRPRQNSLHGSFHSADVLKMDDFGAVPFTELVVQSITPHQSQQSQPVELDPFGAAPFPSKQ [BMP2K] | 50.5 °C | 51.1 °C | -0.292 | -0.0153 | 0.793 | 0.398
